Data taken from patent US20110086767A1, “MUTANTS OF GLYCOSIDE HYDROLASES AND USES THEREOF FOR SYNTHESIZING COMPLEX OLIGOSACCHARIDES AND DISACCHARIDE INTERMEDIATES” (Institut Pasteur, priority 2008, published 2011).

Assay: HPLC screening of double-mutant libraries for variants able to glucosylate D-GlcpNAc
Assay type: biochemical
Details: α-D-Glcp-(1→4)-α-D-GlcpNAc (ED) from sucrose and D-GlcpNAc, microplate format
Experimental: The protocol was established to enable the rapid identification of clones for which D-GlcpNAc glucosylation was improved. To obtain higher amounts of enzymes and facilitate detection of glucosylated compounds upon HPLC screening, mutants were produced in 96-DeepWell Format plates. Storage microplates containing monomutants were thawed and replicated to inoculate a starter culture in 96-well microplates containing, in each well, 150 μL LB medium supplemented with ampicillin (100 μg/mL). After growth for 24 h at 30° C. under agitation (200 rpm), plates were duplicated into 96-Deep Well plates containing, in each well, 1.1 mL LB medium supplemented with ampicillin (100 μg/mL) and IPTG (1 mM) to induce GST-AS expression. Cultures were then grown for 24 h at 30° C. under agitation (200 rpm). Plates were centrifuged (20 min, 3000 g, 4° C.) and the supernatant was removed. The cell pellet was resuspended in 200 μL of lysozyme (0.5 mg/mL), followed by freezing at −80° C. for 8 to 12 h. After thawing at room temperature, 100 μL of sucrose and 100 μL of acceptor (each at a final concentration of 73 mM) were added to each well. Enzymatic reaction was incubated at 30° C. during 24 h under agitation. The DeepWell plates were then centrifuged (20 min, 3000 g, 4° C.) and 300 μL of the supernatant was transferred to a filter micro-plate (PVDF 0.2 μm) to be clarified. Supernatant filtration was carried out by centrifugation of the filter micro-plate (5 min, 2000 g, 4° C.) into a novel microplate for screening.
The method for the expression of the mutant libraries is described in Example 1-1.
Acceptor reaction products were analyzed by HPLC analysis using a C18-AQ column (Bischoff C18, 125×4 mm, 3 μm) kept at room temperature and eluted with 0.6 mL/min of ultra-pure water to detect α-D-Glcp-(1→4)-α-D-GlcpNAc formation (analysis time: 7 min). To evaluate the efficiency of the glucosylation reaction, it was carried out complementary HPLC analyses with a Biorad HPX-87K Carbohydrate Analysis column (maintained at 65° C., and eluted at a flow rate of 0.6 mL/min with ultra-pure water). By this way, it was possible to measure sucrose consumption by RI detection and concomitant α-D-Glcp-(1-4)-α-D-GlcpNAc formation by UV220 nm and determine mutant ability to synthesize the desired disaccharide α-D-Glcp-(1→4)-α-D-GlcpNAc (i.e., % Glucosyl units transferred onto acceptor derivatives=[Glucosyl units transferred onto acceptor derivatives]/[Glucosyl units transferred from initial sucrose]×100)
All clones producing sucrose-utilizing variants were then picked and cultured in 96-well microplates. Following cell lysis, the acceptor reaction in the presence of D-GlcpNAc was then carried out in microplate format. HLPC analysis time for each clone was reduced to 7 min for detection of α-D-Glcp-(1→4)-α-D-GlcpNAc. When disaccharide formation was detected, complementary analyses were performed to determine sucrose consumption and disaccharide formation with more accuracy in order to calculate the glucosylation yield.

Row | Molecule | Glusosylation Yield to synthesize ED [%] | Glusosylation Yield to synthesize ED (listed as DM4_P1_G7) [%] | Glusosylation Yield to synthesize ED (listed as DM4_P2_B10) [%]
1 | F290V: single mutant F290V of N. polysaccharea amylosucrase (protein) SPNSQYLKTRILDIYTPEQRAGIEKSEDWRQFSRRMDTHFPKLMNELDSVYGNNEALLPMLEMLLAQAWQSYSQRNSSLKDIDIARENNPDWILSNKQVGGVCYVDLFAGDLKGLKDKIPYFQELGLTYLHLMPLFKCPEGKSDGGYAVSSYRDVNPALGTIGDLREVIAALHEAGISAVVDFIFNHTSNEHEWAQRCAAGDPLFDNFYYIFPDRRMPDQYDRTLREIFPDQHPGGFSQLEDGRWVWTTFNSFQWDLNYSNPWVFRAMAGEMLFLANLGVDILRMDAVAVIWKQMGTSCENLPQAHALIRAFNAVMRIAAPAVFFKSEAIVHPDQVVQYIGQDECQIGYNPLQMALLWNTLATREVNLLHQALTYRHNLPEHTAWVNYVRSHDDIGWTFADEDAAYLGISGYDHRQFLNRFFVNRFDGSFARGVPFQYNPSTGDCRVSGTAAALVGLAQDDPHAVDRIKLLYSIALSTGGLPLIYLGDEVGTLNDDDWSQDSNKSDDSRWAHRPRYNEALYAQRNDPSTAAGQIYQDLRHMIAVRQSNPRFDGGRLVTFNTNNKHIIGYIRNNALLAFGNFSEYPQTVTAHTLQAMPFKAHDLIGGKTVSLNQDLTLQPYQVMWLEIA | 100 |  | 
2 | I228V-F290K: double mutant I228V, F290K of N. polysaccharea amylosucrase (protein) SPNSQYLKTRILDIYTPEQRAGIEKSEDWRQFSRRMDTHFPKLMNELDSVYGNNEALLPMLEMLLAQAWQSYSQRNSSLKDIDIARENNPDWILSNKQVGGVCYVDLFAGDLKGLKDKIPYFQELGLTYLHLMPLFKCPEGKSDGGYAVSSYRDVNPALGTIGDLREVIAALHEAGISAVVDFIFNHTSNEHEWAQRCAAGDPLFDNFYYIFPDRRMPDQYDRTLREVFPDQHPGGFSQLEDGRWVWTTFNSFQWDLNYSNPWVFRAMAGEMLFLANLGVDILRMDAVAKIWKQMGTSCENLPQAHALIRAFNAVMRIAAPAVFFKSEAIVHPDQVVQYIGQDECQIGYNPLQMALLWNTLATREVNLLHQALTYRHNLPEHTAWVNYVRSHDDIGWTFADEDAAYLGISGYDHRQFLNRFFVNRFDGSFARGVPFQYNPSTGDCRVSGTAAALVGLAQDDPHAVDRIKLLYSIALSTGGLPLIYLGDEVGTLNDDDWSQDSNKSDDSRWAHRPRYNEALYAQRNDPSTAAGQIYQDLRHMIAVRQSNPRFDGGRLVTFNTNNKHIIGYIRNNALLAFGNFSEYPQTVTAHTLQAMPFKAHDLIGGKTVSLNQDLTLQPYQVMWLEIA | 89 |  | 
3 | I228V-F290V: double mutant I228V, F290V of N. polysaccharea amylosucrase (protein) SPNSQYLKTRILDIYTPEQRAGIEKSEDWRQFSRRMDTHFPKLMNELDSVYGNNEALLPMLEMLLAQAWQSYSQRNSSLKDIDIARENNPDWILSNKQVGGVCYVDLFAGDLKGLKDKIPYFQELGLTYLHLMPLFKCPEGKSDGGYAVSSYRDVNPALGTIGDLREVIAALHEAGISAVVDFIFNHTSNEHEWAQRCAAGDPLFDNFYYIFPDRRMPDQYDRTLREVFPDQHPGGFSQLEDGRWVWTTFNSFQWDLNYSNPWVFRAMAGEMLFLANLGVDILRMDAVAVIWKQMGTSCENLPQAHALIRAFNAVMRIAAPAVFFKSEAIVHPDQVVQYIGQDECQIGYNPLQMALLWNTLATREVNLLHQALTYRHNLPEHTAWVNYVRSHDDIGWTFADEDAAYLGISGYDHRQFLNRFFVNRFDGSFARGVPFQYNPSTGDCRVSGTAAALVGLAQDDPHAVDRIKLLYSIALSTGGLPLIYLGDEVGTLNDDDWSQDSNKSDDSRWAHRPRYNEALYAQRNDPSTAAGQIYQDLRHMIAVRQSNPRFDGGRLVTFNTNNKHIIGYIRNNALLAFGNFSEYPQTVTAHTLQAMPFKAHDLIGGKTVSLNQDLTLQPYQVMWLEIA |  | 90 | 47
4 | F290R: single mutant F290R of N. polysaccharea amylosucrase (protein) SPNSQYLKTRILDIYTPEQRAGIEKSEDWRQFSRRMDTHFPKLMNELDSVYGNNEALLPMLEMLLAQAWQSYSQRNSSLKDIDIARENNPDWILSNKQVGGVCYVDLFAGDLKGLKDKIPYFQELGLTYLHLMPLFKCPEGKSDGGYAVSSYRDVNPALGTIGDLREVIAALHEAGISAVVDFIFNHTSNEHEWAQRCAAGDPLFDNFYYIFPDRRMPDQYDRTLREIFPDQHPGGFSQLEDGRWVWTTFNSFQWDLNYSNPWVFRAMAGEMLFLANLGVDILRMDAVARIWKQMGTSCENLPQAHALIRAFNAVMRIAAPAVFFKSEAIVHPDQVVQYIGQDECQIGYNPLQMALLWNTLATREVNLLHQALTYRHNLPEHTAWVNYVRSHDDIGWTFADEDAAYLGISGYDHRQFLNRFFVNRFDGSFARGVPFQYNPSTGDCRVSGTAAALVGLAQDDPHAVDRIKLLYSIALSTGGLPLIYLGDEVGTLNDDDWSQDSNKSDDSRWAHRPRYNEALYAQRNDPSTAAGQIYQDLRHMIAVRQSNPRFDGGRLVTFNTNNKHIIGYIRNNALLAFGNFSEYPQTVTAHTLQAMPFKAHDLIGGKTVSLNQDLTLQPYQVMWLEIA | 100 |  | 
5 | F229V: single mutant F229V of N. polysaccharea amylosucrase (protein) SPNSQYLKTRILDIYTPEQRAGIEKSEDWRQFSRRMDTHFPKLMNELDSVYGNNEALLPMLEMLLAQAWQSYSQRNSSLKDIDIARENNPDWILSNKQVGGVCYVDLFAGDLKGLKDKIPYFQELGLTYLHLMPLFKCPEGKSDGGYAVSSYRDVNPALGTIGDLREVIAALHEAGISAVVDFIFNHTSNEHEWAQRCAAGDPLFDNFYYIFPDRRMPDQYDRTLREIVPDQHPGGFSQLEDGRWVWTTFNSFQWDLNYSNPWVFRAMAGEMLFLANLGVDILRMDAVAFIWKQMGTSCENLPQAHALIRAFNAVMRIAAPAVFFKSEAIVHPDQVVQYIGQDECQIGYNPLQMALLWNTLATREVNLLHQALTYRHNLPEHTAWVNYVRSHDDIGWTFADEDAAYLGISGYDHRQFLNRFFVNRFDGSFARGVPFQYNPSTGDCRVSGTAAALVGLAQDDPHAVDRIKLLYSIALSTGGLPLIYLGDEVGTLNDDDWSQDSNKSDDSRWAHRPRYNEALYAQRNDPSTAAGQIYQDLRHMIAVRQSNPRFDGGRLVTFNTNNKHIIGYIRNNALLAFGNFSEYPQTVTAHTLQAMPFKAHDLIGGKTVSLNQDLTLQPYQVMWLEIA | 88 |  | 
6 | I228A-F290H: double mutant I228A, F290H of N. polysaccharea amylosucrase (protein) SPNSQYLKTRILDIYTPEQRAGIEKSEDWRQFSRRMDTHFPKLMNELDSVYGNNEALLPMLEMLLAQAWQSYSQRNSSLKDIDIARENNPDWILSNKQVGGVCYVDLFAGDLKGLKDKIPYFQELGLTYLHLMPLFKCPEGKSDGGYAVSSYRDVNPALGTIGDLREVIAALHEAGISAVVDFIFNHTSNEHEWAQRCAAGDPLFDNFYYIFPDRRMPDQYDRTLREAFPDQHPGGFSQLEDGRWVWTTFNSFQWDLNYSNPWVFRAMAGEMLFLANLGVDILRMDAVAHIWKQMGTSCENLPQAHALIRAFNAVMRIAAPAVFFKSEAIVHPDQVVQYIGQDECQIGYNPLQMALLWNTLATREVNLLHQALTYRHNLPEHTAWVNYVRSHDDIGWTFADEDAAYLGISGYDHRQFLNRFFVNRFDGSFARGVPFQYNPSTGDCRVSGTAAALVGLAQDDPHAVDRIKLLYSIALSTGGLPLIYLGDEVGTLNDDDWSQDSNKSDDSRWAHRPRYNEALYAQRNDPSTAAGQIYQDLRHMIAVRQSNPRFDGGRLVTFNTNNKHIIGYIRNNALLAFGNFSEYPQTVTAHTLQAMPFKAHDLIGGKTVSLNQDLTLQPYQVMWLEIA | 88 |  | 
